# Assay results taken from patent publication US20190112340A1 (US Dept. of Health and Human Services, published 2019).
# Legend:
# [1] = target: sc9 DS-Cav1-105Q (Engineered disulfide 155C-290C. Glycoprotein; it assembles as a trimer and one protomer is given.); experiment: BLI (Octet), F on Ni-NTA tips, Fab in solution
# [2] = target: RSV F sc9-9 DS-Cav1 (human RSV subtype A (strain A2), UniProt P03420 26-96; P03420 145-513); experiment: BLI (Octet), F on Ni-NTA tips, Fab in solution
# [3] = target: T1, RSV F sc9-10 DS-Cav1 (human RSV subtype A (strain A2)); experiment: BLI (Octet), F on Ni-NTA tips, Fab in solution
# [4] = target: T2, sc9-19 DS-Cav1 (Engineered disulfide 155C-290C. Glycoprotein; it assembles as a trimer and one protomer is given.); experiment: BLI (Octet), F on Ni-NTA tips, Fab in solution
# [5] = target: sc9-24 DS-Cav1; experiment: BLI (Octet), F on Ni-NTA tips, Fab in solution
# [6] = target: sc9-10 DS-Cav1 Q98C, Q361C L95M-I221M-R429K (B18537); experiment: BLI (Octet), F on Ni-NTA tips, Fab in solution
# [7] = target: sc9-10 DS-Cav1 Q98C, Q361C S46G-E92D-L95M-S215P-I217P-I221M-R429K-K465Q (Long (VR26)); experiment: BLI (Octet), F on Ni-NTA tips, Fab in solution
# [8] = target: T3, bRSV F ATue51908 DS-Cav1 (bovine RSV, strain ATue51908, UniProt P22167 26-109; P22167 137-513); experiment: D25 binding to stressed pre-F trimer as a fraction of the untreated protein (physical stability)
# [9] = target: T4, bRSV F 391-2 DS-Cav1 (bovine RSV, strain 391-2, UniProt P22167 26-574); experiment: as above
# [10] = target: T5, bRSV F strain 391-2 sc9-10, DS-Cav1, Q98C-Q361C (bovine RSV, strain 391-2); experiment: as above
# [11] = target: T6, bRSV F ATue51908 sc9-10 DS-Cav1 A149C Y458C (bovine RSV, strain ATue51908 …); experiment: as above
# [12] = target: T7, bRSV F RB94 DS-Cav1 (bovine RSV, strain RB94, UniProt P23728 26-109; P23728 137-513); experiment: as above
# [13] = target: T8, bRSV F 391-2 sc9 DS-Cav1 Q98C Q361C (bovine RSV, strain 391-2, UniProt P22167 26-513); experiment: as above
# [14] = target: T3, bRSV F ATue51908 DS-Cav1; experiment: Fab binding to purified bRSV F trimer (Octet BLI as in Example 1)
# [15] = target: T4, bRSV F 391-2 DS-Cav1; experiment: as above
# [16] = target: T5, bRSV F strain 391-2 sc9-10, DS-Cav1, …; experiment: as above
# [17] = target: T6, bRSV F ATue51908 sc9-10 DS-Cav1 A149C …; experiment: as above
# [18] = target: T7, bRSV F RB94 DS-Cav1; experiment: as above
# [19] = target: T8, bRSV F 391-2 sc9 DS-Cav1 Q98C Q361C; experiment: as above
# [20] = target: T1, RSV F sc9-10 DS-Cav1; experiment: BLI (Octet), D25 Fab binding after/before stress
# [21] = target: T2, sc9-19 DS-Cav1; experiment: BLI (Octet), D25 Fab binding after/before stress
# [22] = target: sc9-24 DS-Cav1; experiment: BLI (Octet), D25 Fab binding after/before stress
# [23] = target: sc8 DS-Cav1; experiment: BLI (Octet), F on Ni-NTA tips, Fab in solution
# [24] = target: sc11 DS-Cav1 (Engineered disulfide 155C-290C. Engineered cysteines 512C/513C. Glycoprotein; one protomer is given.); experiment: BLI (Octet), F on Ni-NTA tips, Fab in solution
# [25] = target: sc9-10 Cav1only 369-455; experiment: ELISA after 1 week at 4 °C
# [26] = target: RSVF Cav1only; experiment: ELISA after 1 week at 4 °C
# [27] = target: sc9-10 Cav1only 99-362; experiment: ELISA after 1 week at 4 °C
# [28] = target: sc9-10 Cav1only 100-362; experiment: ELISA after 1 week at 4 °C
# [29] = target: sc9-10 Cav1only 98-362; experiment: ELISA after 1 week at 4 °C
# [30] = target: sc9-10 Cav1only 146-458; experiment: ELISA after 1 week at 4 °C
# [31] = target: sc9-10 Cav1only 99-361; experiment: ELISA after 1 week at 4 °C
# [32] = target: sc9-10 A149C Y458C Long CAV1only; experiment: ELISA after 1 week at 4 °C
# [33] = target: sc9-10 Cav1only 100-361; experiment: ELISA after 1 week at 4 °C
# [34] = target: sc9-10 Cav1only; experiment: ELISA after 1 week at 4 °C
# [35] = target: sc9-10 N183GC N428C Long CAV1only; experiment: ELISA after 1 week at 4 °C
# [36] = target: sc9-10 Cav1only 98-361; experiment: ELISA after 1 week at 4 °C
binder,measurement,setting,value
"D25 Fab (Fab, V domains shown) VH: QVQLVQSGAEVKKPGSSVMVSCQASGGPLRNYIINWLRQAPGQGPEWMGGIIPVLGTVHYAPKFQGRVTITADESTDTAYIHLISLRSEDTAMYYCATETALVVSTTYLPHYFDNWGQGTLVTVSS VL: DIQMTQSPSSLSAAVGDRVTITCQASQDIVNYLNWYQQKPGKAPKLLIYVASNLETGVPSRFSGSGSGTDFSLTISSLQPEDVATYYCQQYDNLPLTFGGGTKVEIKR",Kd,[1],0.7 nM
same,Kd,[2],0.2 nM
same,Kd,[3],0.8 nM
same,Kd,[4],0.8 nM
same,Kd,[5],0.8 nM
same,Kd,[6],0.1 nM
same,Kd,[7],0.1 nM
same,fractional antibody reactivity after 10 cycles of freeze-thaw,[8],1 fraction
same,fractional antibody reactivity after 50 °C,[8],0.9 fraction
same,fractional antibody reactivity after 70 °C,[8],0.1 fraction
same,fractional antibody reactivity after osmolarity 10 mM,[8],0.7 fraction
same,fractional antibody reactivity after osmolarity 3000 mM,[8],0.4 fraction
same,fractional antibody reactivity after pH 3.5,[8],0.9 fraction
same,fractional antibody reactivity after 10 cycles of freeze-thaw,[9],1 fraction
same,fractional antibody reactivity after 50 °C,[9],0.7 fraction
same,fractional antibody reactivity after 70 °C,[9],0.1 fraction
same,fractional antibody reactivity after osmolarity 10 mM,[9],0.9 fraction
same,fractional antibody reactivity after osmolarity 3000 mM,[9],0.6 fraction
same,fractional antibody reactivity after pH 3.5,[9],0.9 fraction
same,fractional antibody reactivity after pH 10.0,[9],1.2 fraction
same,fractional antibody reactivity after 10 cycles of freeze-thaw,[10],1 fraction
same,fractional antibody reactivity after 50 °C,[10],1 fraction
same,fractional antibody reactivity after 70 °C,[10],1 fraction
same,fractional antibody reactivity after osmolarity 10 mM,[10],0.8 fraction
same,fractional antibody reactivity after osmolarity 3000 mM,[10],0.8 fraction
same,fractional antibody reactivity after pH 3.5,[10],0.9 fraction
same,fractional antibody reactivity after pH 10.0,[10],0.9 fraction
same,fractional antibody reactivity after 10 cycles of freeze-thaw,[11],1 fraction
same,fractional antibody reactivity after 50 °C,[11],0.9 fraction
same,fractional antibody reactivity after 70 °C,[11],0.9 fraction
same,fractional antibody reactivity after osmolarity 10 mM,[11],0.7 fraction
same,fractional antibody reactivity after osmolarity 3000 mM,[11],0.8 fraction
same,fractional antibody reactivity after pH 3.5,[11],1 fraction
same,fractional antibody reactivity after pH 10.0,[11],0.9 fraction
same,fractional antibody reactivity after 10 cycles of freeze-thaw,[12],1 fraction
same,fractional antibody reactivity after 50 °C,[12],0.6 fraction
same,fractional antibody reactivity after 70 °C,[12],0.1 fraction
same,fractional antibody reactivity after osmolarity 10 mM,[12],0.8 fraction
same,fractional antibody reactivity after osmolarity 3000 mM,[12],0.5 fraction
same,fractional antibody reactivity after pH 3.5,[12],1.2 fraction
same,fractional antibody reactivity after pH 10.0,[12],1.3 fraction
same,fractional antibody reactivity after 10 cycles of freeze-thaw,[13],1 fraction
same,fractional antibody reactivity after 50 °C,[13],0.9 fraction
same,fractional antibody reactivity after 70 °C,[13],0.8 fraction
same,fractional antibody reactivity after osmolarity 10 mM,[13],1 fraction
same,fractional antibody reactivity after osmolarity 3000 mM,[13],0.9 fraction
same,fractional antibody reactivity after pH 3.5,[13],1.2 fraction
same,fractional antibody reactivity after pH 10.0,[13],1 fraction
same,Kd,[14],10.8 nM
same,Kd,[15],0.4 nM
same,Kd,[16],57.5 nM
same,Kd,[17],420 nM
same,Kd,[18],24.3 nM
same,Kd,[19],24.3 nM
same,"fractional D25 reactivity, 50 °C",[20],0.9
same,"fractional D25 reactivity, 70 °C",[20],0.9
same,"fractional D25 reactivity, freeze-thaw",[20],0.2
same,"fractional D25 reactivity, osmolality 10 mM",[20],1.4
same,"fractional D25 reactivity, osmolality 3000 mM",[20],0.7
same,"fractional D25 reactivity, pH 3.5",[20],1.5
same,"fractional D25 reactivity, pH 10.0",[20],0.7
same,"fractional D25 reactivity, 50 °C",[21],0.9
same,"fractional D25 reactivity, 70 °C",[21],0.9
same,"fractional D25 reactivity, freeze-thaw",[21],0.04
same,"fractional D25 reactivity, osmolality 10 mM",[21],0.6
same,"fractional D25 reactivity, osmolality 3000 mM",[21],0.5
same,"fractional D25 reactivity, pH 3.5",[21],0.7
same,"fractional D25 reactivity, pH 10.0",[21],0.8
same,"fractional D25 reactivity, 50 °C",[22],0.9
same,"fractional D25 reactivity, 70 °C",[22],0.9
same,"fractional D25 reactivity, freeze-thaw",[22],0
same,"fractional D25 reactivity, osmolality 10 mM",[22],0.5
same,"fractional D25 reactivity, osmolality 3000 mM",[22],0.5
same,"fractional D25 reactivity, pH 3.5",[22],0.7
same,"fractional D25 reactivity, pH 10.0",[22],0.7
same,Kd,[23],7.4 nM
same,Kd,[24],0.7 nM
"D25 antibody (antibody, V domains shown) VH: QVQLVQSGAEVKKPGSSVMVSCQASGGPLRNYIINWLRQAPGQGPEWMGGIIPVLGTVHYAPKFQGRVTITADESTDTAYIHLISLRSEDTAMYYCATETALVVSTTYLPHYFDNWGQGTLVTVSS VL: DIQMTQSPSSLSAAVGDRVTITCQASQDIVNYLNWYQQKPGKAPKLLIYVASNLETGVPSRFSGSGSGTDFSLTISSLQPEDVATYYCQQYDNLPLTFGGGTKVEIKR",ELISA signal (antigenicity),[25],2.94
same,ELISA signal (antigenicity),[26],3.33
same,ELISA signal (antigenicity),[27],1.39
same,ELISA signal (antigenicity),[28],0.416
same,ELISA signal (antigenicity),[29],0.957
same,ELISA signal (antigenicity),[30],2.34
same,ELISA signal (antigenicity),[31],2.89
same,ELISA signal (antigenicity),[32],2.88
same,ELISA signal (antigenicity),[33],0.92
same,ELISA signal (antigenicity),[34],3.6
same,ELISA signal (antigenicity),[35],0.502
same,ELISA signal (antigenicity),[36],1.84
